Source: a protein production outcome set (Wang et al. 2014)

Assay: label from the status in PepcDB records

| Sequence | protein production |
| --- | --- |
| MSTTQLKVKEINEELDSRPAVPPINDIRSYIAALEAHGVLHRVKAEVDWKFELAHISKVNEEQKGPALLYENVKGNTIPVFTSAFTTPERIAICLEQDPSLSMCQLSRKWMELTTKQMIKPTFVKNPPVMENIIEEKDVDLENFPAPWFYPDDGGRFFGTSGYLVTQDPDTGWTNLGTYRSQILGKNILGSQIISGKHGDFHMKKYQERGEKMPVAYVVGGDPILFLASSTLVSAQTDEYDVGGALRGRPIEVFKSDLTGLTLPANAEIIVEGWMDPEELMEEGPFGEYTGYYSGNKMKDYPKPVIRVKRIIHRNKPIFWSTTVGKPINDTHMVQSINRTATLWHDLETMKVPGIQSVYFPAAATGRFWVVASVKQMYPGHSNHVADAINGSTTGHYGVKGIIIVDHDIAADDMDRVWWALAVRFDPKRSTQIITRGRSTPLDPGLPIEARDVVSRIILDATIPYEWKNKPNEIFMDRTVLQKVSDRWNEYGFTGASPVAEMIPRLTRPEVKKK | failed |
| MSTTYYWLCLLASIVFEVAGTSVMKLSQETWPLLGMGCMYLLLGLSYFFLARAVVKLPVGVAYAFWEGLGLTLITIVSVTLLDERLDAMRLAALGMVLAGTLLVHHGTAHGRDDEEAEAASGGEGRI | failed |
| MSTYLIGDIHGCLDELLALLAQVNFDPQQDTLWLTGDLVARGPASLDVLRYVRSLGPAVRMVLGNHDLHLLAVYAGISRNKPKDRITPLLDAPDADELINWLRRQPVLQVDDQLKLIMAHAGITPQWDIETAKMCAREVEAVLSSDSYPLFLDAMYGDMPNNWSPELTGLARLRFSTNALTRMRFCFPNGQLDMICKDTPENAPAPLKPWFDLPRLVDPEYSIIFGHWASLEGKGVPEGIYGLDTGCCWGGDLTLLRWDDKRYFTQRAFKAEAEINNNNGFAAGEAVQH | failed |
| MSTYYNDHLAAAEKDISSSNFCNLVDASVMLYDEEHRDLLPKKVNSRCQAKTKKQEKESDKRFFDLFPKKRRTSVVTVRNPEQNQQNLHRVSTSSSLLDLNTIPGDSSDPRNELQGLLSSSSSSFLGDYERKTPQNASSSSTLLAEYNTEMANPPNPNSETSLKRKHSDSEPKKAKTPYSWKGREAPEWLVKMMGTMQGSEGPRLIYEKTLTETDVKPVQSRLLMPFNTLIRNDFLTPVELRILLELEDDTDGVGATLVDPWEVKWGVILKKREMKKYSGKGSLNYAIICGWNDIVEANVLEKDDDISIWSFRRGRNGILSFALVLPPPPDMA | failed |
| MSVAFVPDWLRGKAEVNQETIQRLLEENDQLIRCIVEYQNKGRGNECVQYQHVLHRNLIYLATIADASPTSTSKAME | failed |
| MSVAGLKKQFHKASQLFSEKISGAEGTKLDDEFLDMERKIDVTNKVVAEILSKTTEYLQPNPAYRAKLGMLNTVSKIRGQVKTTGYPQTEGLLGDCMLKYGKELGEDSTFGNALIEVGESMKLMAEVKDSLDINVKQTFIDPLQLLQDKDLKEIGHHLKKLEGRRLDYDYKKKRVGKIPDEEVRQAVEKFEESKELAERSMFNFLENDVEQVSQLAVFIEAALDYHRQSTEILQELQSKLQMRISAASSVPRREYKPRPVKRSSSELNGVSTTSVVKTTGSNIPMDQPCCRGLYDFEPENQGELGFKEGDIITLTNQIDENWYEGMIHGESGFFPINYVEVIVPLPQ | failed |
| MSVAILAQEKLGDCVLLTPLVRNLRQAFPDLEIHLITFSRASANFFMNDPQVTAVHLVKKQPRRYFREVLSRKFDLLFNTKDHPSTWFLLQSALIRARFKVGHNNPFHEGLYDRLLDTEFHAHMAVKNCALLPLLGVTADTEACRPSLEHHHHHH | not failed |
| MSVELEESQVCEACGCAGEIGFIIKEGDEVADVTIFAETKDALESELAKYIELAKSVCAGVEYNVSELTEESKELTARFKFEVSAEKLIFELKTRSLARLEHHHHHH | not failed |
| MSVIATILAYAGLAIVSTVVVWKGSELLESSTEKLSGYYQLPPLVQGSIVLAVGSSFPELSTAVLSAALHGDFELGVAAVVGSALFNILMIPALAGLWAEERLESTRDLIYKETQFYLISIVVLLLMFSFAVIYNPLAGGTDAQVGGVTRGLALLPLALYAVYVYLQYQDTRDHQPEAPPEDIHLPKQGTRLVGSLLIILIGVEGLIRSAVAFGDIFGTPSFLWGITVVAAGTSVPDAFVSIRASRAGNPVTSVANVLGSNIFDLLVCIPAAALVAGTVAINYSVGMPMMGVLSLATLIVLLTMRSEMVLTTPEAWGLIALYLAFVVWMGAETVGTVDLIPHLPPPAHTP | failed |
| MSVISIILVLIIAFLAGLDGILDQFQFHQPLVSCTLIGLASGHTVAGIMLGGTLQFLALGWANIGAAVAPDVALASTAAAVIMIKGGDFSQKGITIAYGVAVPLAIAGLALTMVVRAISIGIVHGADAAAKNGNIRAVERSHYFALLLQGLRIVFPVALLLALPANHVKSILEAIPSWLSDGMTIGGGMVVAVGYAMILNMMATREVWPFFIIGFVLAAIPDTQITLFGLGMIGVALAMIYIALTNQTGRNSSSGQASSSSNDPIGDILEDY | failed |
| MSVKVSVDDIDGITEVLNVYMNAAESGTGEEMSAAFHKDATIFGYVGDKLAFNGPIKDLYDWHNSNGPAKNVQSRITNIDIVGTVAHARVEAENWTNFKFSDLFLLLKLDGKWTIVNKVFHLHA | not failed |
| MSVLGFDIGNLNCYIGVARQGGIEVITNDYSLHATPACVSFGPKDRSMGVAARQAVTTNIKNTVINFKHLIGRKFSDPVAQRFIPFIPCKVVKLPNDDIGVQVSYLGEPHTFTPEQVLAALLTKLRTIVESQLSDVKKVSDCVLAVPSYFTDVQRRAVLSAIQYAGLNSLRIVNETTAIALAYGIYKQDLPEEDAKSRNVVFLDIGHSSTQASLVAFNRGKLQMVNTSYDLESGGIWFDALIREHFRKEFKTKYGIDAATSPRPWLRLLDECERVKKQMSANQTPIPLNIECFMEDKDVTGKMQRQEFEDLAAPIFNRIKQVLINLFADGVSIKPEEIDEIEIVGGSSRIPMIREIVKDLFGKEPKTTMNQDEAVARGAAMQCAILSPTFRVREFAIKDTQPYRIRLSWNSTGENGGENDVFSPRDEVPFSKLVSLLRSGPFNVEAHYAQPNVVPHNQVHIGSWKVNGARPGADGGNQKVKVKVRVNPDGIFTIASATMYEPRIVEEVPAEAMEVDGDAKTEAPAEPL | failed |
| MSVLIYVESNGSEIKKSSMDAVAYGTQVASKLGGSAIVVAIGNIPQEQLTALGNFGASKVLHVTGDAFNQNAPLASAAAVVEAAKKAGAKVIVLPKSTLVDSFAPKLASQLKAGVVTNVTELPDTSAGFQVKRSIFTGKAFATVSINTDIKVITLAKNAYQGTETGGTAAVEALSVSLTDADTKVKTTNVEKMSGELLLTEAEIVVSGGRGLKGPENWGVLLDLAKALGAATGCSKPVSDMDWRPHHEHVGQTGVKVAPNLYIAVGISGAIQHLAGVNSSKCIVVINKDPEAPFFKAADYGIVGDLFEVLPKLTEAAKLLK | failed |
| MSVLKEYRTVSEVVGPLMIVDQVAGVHYNELVDITLHNGERRKGQVLEVQGDKAMVQLFEGSTGINLAKTKVRFTGHPLELAVSEDMVGRIFDGMGQPIDGGPELIPEKYLDIDGQAINPVARDYPDEFIQTGISAIDHLNTLVRGQKLPVFSGSGLPHNELAAQIARQATVLNSDDNFAVVFAAMGITFEEAEFFMNDLRETGAIDRSVLFINLANDPAIERIATPRIALTTAEYLAYEKGMHVLVIMTDMTNYCEALREVSAARREVPGRRGYPGYLYTNLSTLYERAGRLIGKKGSVTQIPILTMPEDDITHPIPDLTGYITEGQIILSQELYKNGFRPPINVLPSLSRLKDKGSGEGKTRQDHAATMNQLFAAYAQGKQAKELAVVLGESALSETDKLYVAFTNRFEEEYINQGFYTNRSIEESLDLGWELLSILPRTELKRIKDDMLDRYLPKADTTMTKVFVAND | failed |
| MSVLVVGGDEITPIKAVLENLGCKDITHWDGRRESINRKNIPQNTECLVLLTNFLNHNTMKKFRGEAKKRNIPVVCSKRSVSCLYCEYCKIFGEAAAKNCPLNSFELEHHHHHH | failed |
| MSVNDQITHIGKTLSTTASAFLNYQKSNSNTQDVLTNNGPYKNLLSNTVNNASSTSYFYKRTEHGRFVKNASNTFEDIYSKTRRGDVFRNKFTDNKTCFRMLTYISDDLLNEIPTKEGLKSDADGKLLTEGGENENLRKNASKKETSLFQGFKSYLPIAELAIENTERLNYDTNGTSGTVGAKDVMSKTNERDEIHTELPNFQDSFLIPPGVETKKISSSYSPSALKSFSQTLVNSLEFLNIQKNSTLSEIRDIEVEVENLRQKKEKLLGKIANIEQNQLLLEDNLKQIDDRLDFLEEYGLEVIEANSDENAEDDGMSERKALKNDAIRNEGVTTESISSEASNLPPRRRQQLRDDNSLNRLGAFYSKSKKRHRKSFPTFQQLYEPGTKIGSIMSTHDDFLTCLDFDAPFGTLCTAGYLDHTVKIWDLSKQNKIGELAGHLATINCMQINRDYGTLVTGGRDAALKLWNLNLAQQLYQETQNLTSPTNHIDSPCVHTFEAHTDEVTALSLDPSFLVSGSQDRTIRQWDLRSGKCLQTIDLSFANVLTTSTNVDLSKSTLLTQRNERPSIGALQSFDAALATGTKDGVVRLWDLRSGKVIRTLKGHTDAITSLKFDSACLVTGSYDRTVRIWDLRTGLLNKFHAYSAPVLSLDLFQENAAVVVADEPSVQIYDSEKDESWSCVEQGNETSVSTVKYKENYMVEGRENGDVNIWAV | failed |
| MSVNESVNRIVGGSGVILAGTFLGMLLDILIKKVMTSHLSPADFGTYSLALTVISITGAVATLGLNEGVPRYIAFFRGRQEEQKVHELIISAILMGLIAGLLAILVSPSLFESLAGKGFDAQGQILSVVKILVFAIPFTILLNLTVAIYRGFDRTNVNMYFYNIIRPLSLLGFASAAVYFGASLKGVVFADLISMVFTFSIMSVYFVKKPPVKPEWKIKFSEPTRQLIRYSFPLLITATLLNLMSWIDTIMLGYFRPAEVVGVYNAVYPIVGFLSLVIASMGYVYVPVASKLWGLNKTQPVGSIYAVMTKWCFLLTFPIFALIFVYPEFLITKLYGAEYVGGTTALRILAMGFIANSYFGFNYHTLLASGDSDFLMRCSVASAGINAVVNFMLIPEYGMIGAAIGTAVSYASIEVSMTLRAWRKQKMHPFTSMYRKLTLVCVVMTATMLAAKIIIPLSGAAWEYAVFIIVYFAVIHYAKILDKDEISMVDEIRKNIRQNVSVHVPQAIKTLVP | failed |
| MSVNLGSLPRQRSLLSRLRDLWPLWLFLALLASALHYIVRYWPQIVLQSAIWQKSLHQQMSHLLQMVEQQPHQAGLSLMMFSLVYGVLHAVGPGHGKVVIMTYLATHPSKLKSSLKLTLAASLVQGLMAIALVTVVLGILQLSSRTLHNSSFWMEKGSFVLVAGLGLLLCFRALKQLYIVLVRQPKPATILRVIPLPVTPLNVAAHGRMTLSPIYAPSHSLHQHDVDCGCGHRHLPSNEELERGSSWHTRLMIVLAMGMRPCSGAIMVLLFSKVIGVYLWGVASALVMAAGTAITISALAVLVFYCRRVIERLGANRASPVWQRATFSLLSFAGGMILVGSGILLYLSAQPAMMGGIRPFSG | failed |
| MSVPDNVYLIGTMNTADRSLAGLDIALRRRFDFVEMAPRPDKLTGVKVAEIDISAVLETMNRRIEVLLDREHRLGHAYFMSLENSNDLSRLSNIFRQQIIPLLQEYFFEDWQRIAWILNDHRKDERFRFIVPAPYSVDSLFGDTGQVAQDSKAWRMNEEAFHKPLEHHHHHH | failed |
| MSVSAELSQTIINNQVTSVLILDESLMIRYANPAAEQLFSQSAKRLMHQSLNHLVQHSSLDLQLLTQPLQSGQSITDSDVTLVIDSKPLMLEVTVSPISWHKELLLLAEMRTIG | failed |
| MSVSGPCLSCDTPGCTMQAHSDSDESFFERAWAVVAQIPVGRVTTYGDIAAHLGRRGAARIVGWALKDAVGGDLPCHRVVNRNGVLTGRRHFETPHVMAERLRSEGVTFVAEDQVDLDAHRWRPGEAE | failed |
